Measured values reported in article PMC9482650, “Quantitative fragmentomics allow affinity mapping of interactomes” (Nature Communications, 2022).

Columns and labels:
Experiment in all cases: holdup assay
Parameters in all cases: key: below the threshold = too weak to quantify, mostly under pKd 3.1 to 4
[1] = target: T1, APBA2_2, Q99767
T1 sequence (Q99767 654-744, limits assumed, looked up): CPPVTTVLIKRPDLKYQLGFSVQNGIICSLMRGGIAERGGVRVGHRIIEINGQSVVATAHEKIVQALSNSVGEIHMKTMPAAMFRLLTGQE

[2] = target: T2, APBA3_1, O96018
T2 sequence (O96018 389-490, limits assumed, looked up): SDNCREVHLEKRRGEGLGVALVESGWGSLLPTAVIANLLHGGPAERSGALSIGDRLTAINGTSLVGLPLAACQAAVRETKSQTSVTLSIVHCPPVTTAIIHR

[3] = target: T3, DFNB31_1, Q9P202
T3 sequence (Q9P202 135-233, limits assumed, looked up): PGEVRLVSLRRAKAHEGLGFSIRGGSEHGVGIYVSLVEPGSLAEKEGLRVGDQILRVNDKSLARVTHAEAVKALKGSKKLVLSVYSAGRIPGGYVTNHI

[4] = target: DLG1_2, Q12959
[5] = target: DLG4_3, P78352
[6] = target: FRMPD2_2, Q68DX3
[7] = target: FRMPD2_3, Q68DX3
[8] = target: GRASP, Q7Z6J2
[9] = target: T4, GRIP1_2, Q9Y3R0
T4 sequence (Q9Y3R0 145-248, limits assumed, looked up): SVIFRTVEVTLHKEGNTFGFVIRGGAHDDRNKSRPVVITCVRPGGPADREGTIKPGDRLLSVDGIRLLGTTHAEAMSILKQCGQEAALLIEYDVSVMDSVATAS

[10] = target: T5, HTRA3, P83110
T5 sequence (P83110 354-453, limits assumed, looked up): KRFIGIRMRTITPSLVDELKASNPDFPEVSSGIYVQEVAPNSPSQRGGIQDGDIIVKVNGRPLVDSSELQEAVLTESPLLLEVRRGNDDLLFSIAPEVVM

[11] = target: Inadl_5, Q8NI35
[12] = target: Inadl_8, Q8NI35
[13] = target: LNX1_3, Q8TBB1
[14] = target: T6, LRRC7, Q96NW7
T6 sequence (Q96NW7 1440-1537, limits assumed, looked up): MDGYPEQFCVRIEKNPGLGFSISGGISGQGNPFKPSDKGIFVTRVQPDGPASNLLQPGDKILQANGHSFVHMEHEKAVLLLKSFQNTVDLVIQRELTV

[15] = target: MAGI2_4, Q86UL8
[16] = target: MAGI2_6, Q86UL8
[17] = target: T7, MPP6, Q9NZW5
T7 sequence (Q9NZW5 125-219, limits assumed, looked up): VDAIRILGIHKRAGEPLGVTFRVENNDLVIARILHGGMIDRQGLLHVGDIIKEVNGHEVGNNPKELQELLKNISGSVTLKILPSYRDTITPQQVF

[18] = target: T8, NHERF3_1, Q5T2W1
T8 sequence (Q5T2W1 4-100, limits assumed, looked up): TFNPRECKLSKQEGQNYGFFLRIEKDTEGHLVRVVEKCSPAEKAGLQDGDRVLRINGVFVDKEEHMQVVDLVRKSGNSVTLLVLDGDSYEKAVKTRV

[19] = target: NHERF4_2, Q86UT5
[20] = target: T9, PDZD2_2, O15018
T9 sequence (O15018 329-429, limits assumed, looked up): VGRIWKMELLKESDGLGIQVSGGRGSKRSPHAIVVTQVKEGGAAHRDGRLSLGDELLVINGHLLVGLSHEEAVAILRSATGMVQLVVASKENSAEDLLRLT

[21] = target: T10, PTPN13_1, Q12923
T10 sequence (Q12923 1088-1188, limits assumed, looked up): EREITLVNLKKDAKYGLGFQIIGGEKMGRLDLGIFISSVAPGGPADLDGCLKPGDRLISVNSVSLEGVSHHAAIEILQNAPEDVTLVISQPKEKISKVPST

[22] = target: T11, SIPA1L2, Q9P2F8
T11 sequence (Q9P2F8 945-1036, limits assumed, looked up): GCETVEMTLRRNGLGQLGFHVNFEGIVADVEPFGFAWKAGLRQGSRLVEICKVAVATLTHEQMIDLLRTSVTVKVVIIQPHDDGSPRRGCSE

[23] = target: T12, SNTA1, Q13424
T12 sequence (Q13424 82-180, limits assumed, looked up): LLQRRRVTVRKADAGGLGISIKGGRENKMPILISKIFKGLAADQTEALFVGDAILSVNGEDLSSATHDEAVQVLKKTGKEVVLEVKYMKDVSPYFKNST

[24] = target: T13, SNTG2, Q9NY99
T13 sequence (Q9NY99 68-166, limits assumed, looked up): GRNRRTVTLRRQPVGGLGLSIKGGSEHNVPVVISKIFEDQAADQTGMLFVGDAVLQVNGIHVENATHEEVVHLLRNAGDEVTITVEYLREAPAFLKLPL

[25] = target: SNX27, Q96L92
[26] = plain residues with an end cap or a label only (N-terminal biotin on a linker: ahx)
[27] = plain residues with an end cap or a label only (N-terminal biotin on a linker: ttds)

Chain of FRMPD2_2, Q68DX3 (Q68DX3 944-1038): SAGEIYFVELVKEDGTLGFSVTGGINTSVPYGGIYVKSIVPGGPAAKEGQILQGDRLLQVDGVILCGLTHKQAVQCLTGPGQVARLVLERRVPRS
Chain of Inadl_8, Q8NI35 (Q8NI35 1425-1530): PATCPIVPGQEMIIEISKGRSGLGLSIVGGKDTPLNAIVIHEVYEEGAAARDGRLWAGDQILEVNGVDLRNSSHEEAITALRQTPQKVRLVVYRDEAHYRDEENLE
Chain of FRMPD2_3, Q68DX3 (Q68DX3 1073-1166): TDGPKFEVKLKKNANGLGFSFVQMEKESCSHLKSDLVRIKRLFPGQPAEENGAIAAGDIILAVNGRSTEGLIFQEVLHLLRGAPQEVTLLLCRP
Chain of DLG1_2, Q12959 (Q12959 314-412): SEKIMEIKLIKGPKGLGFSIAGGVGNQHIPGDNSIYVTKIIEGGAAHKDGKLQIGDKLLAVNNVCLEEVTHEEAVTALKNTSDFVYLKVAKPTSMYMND
Chain of MAGI2_4, Q86UL8 (Q86UL8 772-865): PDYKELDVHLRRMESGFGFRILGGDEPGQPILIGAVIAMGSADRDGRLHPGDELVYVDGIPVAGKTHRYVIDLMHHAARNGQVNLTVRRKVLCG
Chain of DLG4_3, P78352 (P78352 306-403): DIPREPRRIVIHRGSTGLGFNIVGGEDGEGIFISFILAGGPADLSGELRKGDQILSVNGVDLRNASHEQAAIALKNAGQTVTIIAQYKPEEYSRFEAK
Chain of LNX1_3, Q8TBB1 (Q8TBB1 500-596): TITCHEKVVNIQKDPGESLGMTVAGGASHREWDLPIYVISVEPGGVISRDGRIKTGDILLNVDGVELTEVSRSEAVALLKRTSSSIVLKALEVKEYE
Chain of Inadl_5, Q8NI35 (Q8NI35 673-780): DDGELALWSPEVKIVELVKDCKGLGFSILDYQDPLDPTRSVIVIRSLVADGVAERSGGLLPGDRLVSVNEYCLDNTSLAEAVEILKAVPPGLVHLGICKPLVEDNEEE
Chain of NHERF4_2, Q86UT5 (Q86UT5 220-308): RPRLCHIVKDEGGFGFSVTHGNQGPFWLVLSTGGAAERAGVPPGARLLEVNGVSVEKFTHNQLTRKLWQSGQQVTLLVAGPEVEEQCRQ
Chain of MAGI2_6, Q86UL8 (Q86UL8 1141-1229): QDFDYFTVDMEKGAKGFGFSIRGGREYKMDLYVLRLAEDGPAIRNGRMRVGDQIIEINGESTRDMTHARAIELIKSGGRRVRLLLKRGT
Chain of GRASP, Q7Z6J2 (Q7Z6J2 96-193): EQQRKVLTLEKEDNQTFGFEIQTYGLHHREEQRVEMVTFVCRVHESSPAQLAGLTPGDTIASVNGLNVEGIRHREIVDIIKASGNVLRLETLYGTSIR

SAPATLSSRA [PDLIM2, Q96JY6]
pKd [1, 26]: below the threshold | pKd [2, 26]: below the threshold | pKd [3, 26]: below the threshold | pKd [4, 26]: below the threshold | pKd [5, 26]: below the threshold | pKd [6, 26]: below the threshold | pKd [7, 26]: below the threshold | pKd [8, 26]: below the threshold | pKd [9, 26]: below the threshold | pKd [10, 26]: below the threshold | pKd [11, 26]: below the threshold | pKd [12, 26]: below the threshold | pKd [13, 26]: below the threshold | pKd [14, 26]: below the threshold | pKd [15, 26]: below the threshold | pKd [16, 26]: below the threshold | pKd [17, 26]: below the threshold | pKd [18, 26]: below the threshold | pKd [19, 26]: below the threshold | pKd [20, 26]: below the threshold | pKd [21, 26]: below the threshold | pKd [22, 26]: below the threshold | pKd [23, 26]: below the threshold | pKd [24, 26]: below the threshold | pKd [25, 26]: below the threshold

FVETQHQTQV [FAT3, Q8TDW7]
pKd [1, 27]: below the threshold | pKd [2, 27]: below the threshold | pKd [3, 27]: 3.48 | pKd [4, 27]: 4.95 | pKd [5, 27]: below the threshold | pKd [6, 27]: 3.97 | pKd [7, 27]: below the threshold | pKd [8, 27]: 3.69 | pKd [9, 27]: 3.51 | pKd [10, 27]: below the threshold | pKd [11, 27]: below the threshold | pKd [12, 27]: below the threshold | pKd [13, 27]: below the threshold | pKd [14, 27]: below the threshold | pKd [15, 27]: 3.91 | pKd [16, 27]: 3.77 | pKd [17, 27]: below the threshold | pKd [18, 27]: 4.72 | pKd [19, 27]: below the threshold | pKd [20, 27]: 4.35 | pKd [21, 27]: below the threshold | pKd [22, 27]: below the threshold | pKd [23, 27]: 4.09 | pKd [24, 27]: 3.82 | pKd [25, 27]: 4.53

SRSRRRETAL [HPV33-E6, P06427]
pKd [1, 27]: below the threshold | pKd [2, 27]: below the threshold | pKd [3, 27]: 3.77 | pKd [4, 27]: 5.14 | pKd [5, 27]: 5.32 | pKd [6, 27]: below the threshold | pKd [7, 27]: below the threshold | pKd [8, 27]: 3.49 | pKd [9, 27]: below the threshold | pKd [10, 27]: below the threshold | pKd [11, 27]: below the threshold | pKd [12, 27]: below the threshold | pKd [13, 27]: below the threshold | pKd [14, 27]: 3.68 | pKd [15, 27]: below the threshold | pKd [16, 27]: below the threshold | pKd [17, 27]: below the threshold | pKd [18, 27]: 5.49 | pKd [19, 27]: below the threshold | pKd [20, 27]: below the threshold | pKd [21, 27]: below the threshold | pKd [22, 27]: below the threshold | pKd [23, 27]: 4.66 | pKd [24, 27]: 4.48 | pKd [25, 27]: 4.91

SGGKRKETLV [NET1, Q7Z628]
pKd [1, 27]: below the threshold | pKd [2, 27]: below the threshold | pKd [3, 27]: below the threshold | pKd [4, 27]: 5.78 | pKd [5, 27]: 4.92 | pKd [6, 27]: 3.67 | pKd [7, 27]: below the threshold | pKd [8, 27]: below the threshold | pKd [9, 27]: below the threshold | pKd [10, 27]: below the threshold | pKd [11, 27]: 3.78 | pKd [12, 27]: 3.63 | pKd [13, 27]: below the threshold | pKd [14, 27]: below the threshold | pKd [15, 27]: 4.75 | pKd [16, 27]: 3.54 | pKd [17, 27]: below the threshold | pKd [18, 27]: 4.35 | pKd [19, 27]: below the threshold | pKd [20, 27]: 4.25 | pKd [21, 27]: below the threshold | pKd [22, 27]: below the threshold | pKd [23, 27]: 4.25 | pKd [24, 27]: 4.17 | pKd [25, 27]: 4.33

PKMKLNETSF [SHKBP1, Q8TBC3]
pKd [1, 26]: below the threshold | pKd [2, 26]: below the threshold | pKd [3, 26]: 3.66 | pKd [4, 26]: below the threshold | pKd [5, 26]: below the threshold | pKd [6, 26]: below the threshold | pKd [7, 26]: below the threshold | pKd [8, 26]: 3.88 | pKd [9, 26]: below the threshold | pKd [10, 26]: below the threshold | pKd [11, 26]: below the threshold | pKd [12, 26]: below the threshold | pKd [13, 26]: below the threshold | pKd [14, 26]: below the threshold | pKd [15, 26]: 3.69 | pKd [16, 26]: 3.54 | pKd [17, 26]: below the threshold | pKd [18, 26]: 4.55 | pKd [19, 26]: below the threshold | pKd [20, 26]: below the threshold | pKd [21, 26]: below the threshold | pKd [22, 26]: below the threshold | pKd [23, 26]: below the threshold | pKd [24, 26]: below the threshold | pKd [25, 26]: 5.54

ADENEQVSAV [RAPGEF6, Q8TEU7]
pKd [1, 26]: below the threshold | pKd [2, 26]: below the threshold | pKd [3, 26]: below the threshold | pKd [4, 26]: 4.01 | pKd [5, 26]: below the threshold | pKd [6, 26]: 4.85 | pKd [7, 26]: below the threshold | pKd [8, 26]: 4.66 | pKd [9, 26]: below the threshold | pKd [10, 26]: below the threshold | pKd [11, 26]: below the threshold | pKd [12, 26]: 3.86 | pKd [13, 26]: below the threshold | pKd [14, 26]: below the threshold | pKd [15, 26]: below the threshold | pKd [16, 26]: 4.19 | pKd [17, 26]: below the threshold | pKd [18, 26]: 3.53 | pKd [19, 26]: below the threshold | pKd [20, 26]: 5.5 | pKd [21, 26]: below the threshold | pKd [22, 26]: below the threshold | pKd [23, 26]: 3.64 | pKd [24, 26]: below the threshold | pKd [25, 26]: 5.07
